Measurements: patent US20120213699A1 (BOARD OF TRUSTEES OF THE UNIVERSITY OF ILLINOIS, published 2012)

Target: T1, BSA (UniProt P02769 25-607)
T1 construct: Negative control coating; also called bovine serum albumin
Experiment: phage ELISA on coated plates, anti-M13 peroxidase
Experimental: Phage ELISA on ACE-coated plates. Purified phages after 1st round of selection were taken for analysis in ELISA. […] For that, 96 well plate was coated with human and rat ACEs as a positive controls, and bovine ACE and BSA (5 ug/ml) as a negative controls. Plates were blocked for 30 min with 2% non-fat dry milk, and phages diluted in the milk were applied to the plates. After 30 min incubation with shaking and another 1.5 hours without shaking, unbound phages were washed with PBS/0.05% Tween 20 and anti-M13 antibodies conjugated with peroxidase (Pharmacia Biotech) diluted 1/2000 dilution in the 2% non-fat dry milk were added. After intensive washing with PBS/0.05% Tween 20 plates were developed with 1-step 3,3′5,5′-Tetramethyl-benzidine (TBM) substrate for ELISA and read at OD620 or at OD450 after reaction was stopped with 3N HCl.
For the assay 96 well plates were coated with human and rat ACEs as positive controls and with bovine ACE and BSA (5 μg/ml) as negative controls. Plates were blocked for 30 min with 2% non-fat dry milk and the phages diluted in milk were applied to the plates. […] After Intensive washing with PBS/Tween 20 the plates were developed with 1-step TBM substrate for ELISA and read at 620 nm or 450 nm after the reaction was stopped with 3N HCl.

T1 sequence (P02769 25-607 limits assumed): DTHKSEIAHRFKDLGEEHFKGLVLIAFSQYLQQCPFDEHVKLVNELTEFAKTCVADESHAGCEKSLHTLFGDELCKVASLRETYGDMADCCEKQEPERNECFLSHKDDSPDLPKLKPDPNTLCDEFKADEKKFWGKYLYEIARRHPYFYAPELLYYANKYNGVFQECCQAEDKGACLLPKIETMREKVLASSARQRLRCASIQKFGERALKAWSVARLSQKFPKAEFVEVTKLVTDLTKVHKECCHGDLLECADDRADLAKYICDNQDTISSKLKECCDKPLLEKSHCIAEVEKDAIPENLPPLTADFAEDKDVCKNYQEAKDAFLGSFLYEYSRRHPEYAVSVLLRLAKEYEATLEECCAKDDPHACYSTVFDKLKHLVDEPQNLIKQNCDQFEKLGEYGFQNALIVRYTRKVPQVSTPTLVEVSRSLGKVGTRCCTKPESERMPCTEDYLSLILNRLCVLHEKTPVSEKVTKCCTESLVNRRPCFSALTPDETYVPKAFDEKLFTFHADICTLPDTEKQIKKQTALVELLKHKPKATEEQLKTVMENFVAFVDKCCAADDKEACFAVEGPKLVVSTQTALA

B1: scFv 9B9 expressed on the phage surface (phages with the λ fragment) (scFv)
scFv: QVQLKESGPGLVAPSQSLSITCTVSGFSLTTYGVHWVRQPPGKGLEWLGVIWGGGNTNYNSALMSRLNITKDNSKRQVFLKMNSLQADDTGMYYCARGWDSWGQGTTLTVSSAKTTPPKLEEGEFSEARVQAVVTQESALTTSPGETVTLTCRSSTGAVTTNNYANWVQENPDHLFTGLIDGTNTRSPGVPARFSGSLIGDKAALTITGAQTEDEAIYFCALWYSNHWVFGGGTKLTVLGQ
notes: also called scFv 9B9 phages; 9B9 scFv phages; not shown: phage coat protein fusion partner from phagemid pSEX 81
  binding result: no binding (tested: 5 µg/ml (coating))
